We go through four substances from patent publication US6017743A, “Siaα 2,3, Galβ 1, 4Glc NAcα 2,8-sialyltransferase” (The Institute of Physical and Chemical Research, priority 1995, dated 2000).

The target in assay [1] is T1, mouse Siaα 2,3Galβ 1,4GlcNAc α 2,8-sialyltransferase O3 (ST8Sia III), protein A-fused soluble enzyme, SEQ. ID. No.3 (active domain of SEQ. ID. No.1) (Mus musculus, UniProt Q64689).
T1 construct: ID; No.3 and 4, respectively; IgM signal peptide (N); made in house; host or cells: COS-7 cells (transient transfection with pcDSA-O3; secreted into the medium, adsorbed to IgG-Sepharose)
T1 sequence (Q64689 42-380): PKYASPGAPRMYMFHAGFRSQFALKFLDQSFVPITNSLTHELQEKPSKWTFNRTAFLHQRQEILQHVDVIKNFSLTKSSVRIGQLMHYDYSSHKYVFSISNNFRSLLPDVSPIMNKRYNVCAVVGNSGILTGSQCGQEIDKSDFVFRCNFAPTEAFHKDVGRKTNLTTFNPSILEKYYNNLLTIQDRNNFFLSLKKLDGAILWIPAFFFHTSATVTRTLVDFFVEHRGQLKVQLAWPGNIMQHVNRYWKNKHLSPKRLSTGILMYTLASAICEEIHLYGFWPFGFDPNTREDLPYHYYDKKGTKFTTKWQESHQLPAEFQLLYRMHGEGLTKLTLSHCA
Description: Kinetic properties of the sialyltransferase of the present invention (sialyltransfer from CMP-[14C]NeuAc to glycolipid acceptors, HPTLC/radio image analysis). In kind it is biochemical. The following applies: acceptor substrate, Table 2. The source says:
To facilitate functional analysis of the sialyltransferase of the present invention, expression plasmid pcDSA-O3 was constructed and transfected into COS-7 cells, and the protein A fused-protein containing an active domein of the sialyltransferase of the present invention (i.e. a soluble enzyme; hereinafter referred to as the fused protein of the present invention) was adsorbed to IgG-Sepharose in the medium and used as the enzyme source. The amino acid sequence of the fused protein and the gene encoding the fused protein are shown as SEQ. ID. No.3 and 4, respectively.
A truncated form of the sialyltransferase of the present invention (ST8Sia-III), lacking the first 39 amino acids of the open reading frame, was prepared by PCR amplification with 5'- and 3'-primers containing a XhoI site, respectively (5'-CATCTTCTCGAGTCCC AAGTACGCCAGCCCG-3' and 5'-[…]-3'). […]
The single insertion in the correct orientation was finally analyzed by restriction enzyme treatment and DNA sequencing. […]
For glycolipid acceptors, the incubation mixtures were applied on a C-18 column (Sep-Pak Vac, 100 mg; Waters, Milford, Mass., U.S.A.) which was washed with water. […] The radioactive materials in glycoproteins or glycolipids were visualized with a BAS2000 radio image analyzer (Fuji Film, Japan), and the radioactivity incorporated into acceptor glycoproteins was counted.

Assay [2] deals with asialo-α1-acid glycoprotein.
Assay [3] addresses asialofetuin.
Assay [4] has as its target bovine submaxillary mucin (bovine).
In assay [5] the target is fetuin.
Assay [6] has as its target ovomucoid.
For assay [7], the target named is transferrin (bovine) (bovine) (UniProt Q29443).
The target of assay [8] is α1-acid glycoprotein.
Assay [9] concerns the target fetuin. The source holds these as a separate data set.

As to “Siaα 2,3Galβ 1,4GlcNAc β 1,4Galβ 1,4Glcβ1,1Cer [2,3-SPG]”, in assay [1] (0.1 M sodium cacodylate pH 6.0, 37° C., CMP-[14C]NeuAc donor), the Km came to 82 µM. Further, in assay [1], the Vmax is 9.2 pmol/h,ml.
As for “mouse ST8Sia II (STX) (from UniProt O35696) (enzyme)”, the sialyltransferase activity toward the acceptor (pmol/ml medium, h) (pmol/ml medium, h) is under 0.1 in [2]; under 0.1 in assay [3]; under 0.1 in assay [4]; 8 in assay [5]; 1.3 in assay [6]; 0.38 in [7]. Besides, the sialyltransferase activity toward the acceptor (pmol/ml medium, h) (pmol/ml medium, h) in assay [8] worked out at 7.6.
With “protein A-fused soluble enzyme containing an active domain of Siaα2,3Galβ1,4GlcNAc α2,8-sialyltransferase O3 (mouse ST8Sia-III)”, the sialyltransferase activity toward the acceptor (pmol/ml medium, h) (pmol/ml medium, h) in [2] is under 0.1; in assay [3], under 0.1; in assay [4] it was under 0.1; in assay [5], 92.1; in assay [6], 1.7; in [7], 1.3. This substance also showed a sialyltransferase activity toward the acceptor (pmol/ml medium, h) (pmol/ml medium, h) in assay [8] of 7.8. The Km in assay [9] amounted to 20 µM.
Take “human ST8Sia I (GD3 synthase) expressed by Namalwa cells (from UniProt Q92185) (enzyme)”: the sialyltransferase activity toward the acceptor (pmol/ml medium, h) (pmol/ml medium, h) in assay [2], in [3], in assay [4], in assay [5], in assay [6] and in [7] was under 0.01 throughout. The substance also showed a sialyltransferase activity toward the acceptor (pmol/ml medium, h) (pmol/ml medium, h) in assay [8] of under 0.01.
